Entries after “also recorded” stand apart in the source; their conditions may differ.
B1: sJAML: recombinant soluble fragment of JAML.D1D2 tagged with 10 His residues at the C-terminus (protein)
chain: LNDLNVSPPELTVHVGDSALMGCVFQSTEDKCIFKIDWTLSPGEHAKDEYVLYYYSNLSVPIGRFQNRVHLMGDILCNDGSLLLQDVQEADQGTYICEIRLKGESQVFKKAVVLHVLPEEPKELMVHVGGLIQMGCVFQSTEVKHVTKVEWIFSGRRAKEEIVFRYYHKLRMSVEYSQSWGHFQNRVNLVGDIFRNDGSIMLQGVRESDGGNYTCSIHLGNLVFKKTIVLHVSPEEPRTL
B2: DW100: monoclonal anti-human JAML antibody (IgG1,κ), hybridoma ATCC PTA-13051; VH SEQ ID NO:19, VL SEQ ID NO:22 (antibody, V domains shown)
VH: DVQLVESGAELVRPGASKLSCKALAYTFTDYEMHWVKQTPVHGLEWIGIIHPGSGGTVYNQKFKGKATLTADKSSSTAYMELSSLTSEDSTVYYCTRRRYYGSSYNWYFDVWGAGN
VL: VLTQSPASLAASVGETVTITCRASENIYYSLAWYQQKQGKSPQLLIYNANSLEDGVPSRFSGSGSGTQYSLKINSMQPEDTATYFCEQTYDVPLTFGAGTKLEL

Columns and labels:
CAR on CHO-CAR cells = target: T1, CAR on CHO-CAR cells (Homo sapiens, UniProt P78310); assay: Soluble JAML binding to CHO-CAR by flow cytometry; assay type: cell-based; details: sJAML 20 μg/ml, 1 h at 4° C., DW216 detection, FIG. 7A
T1 construct: The full length gene of CAR was cloned into pcDNA3.1-Hygromycin; expressed in transfected cells
T1 sequence (P78310 20-365): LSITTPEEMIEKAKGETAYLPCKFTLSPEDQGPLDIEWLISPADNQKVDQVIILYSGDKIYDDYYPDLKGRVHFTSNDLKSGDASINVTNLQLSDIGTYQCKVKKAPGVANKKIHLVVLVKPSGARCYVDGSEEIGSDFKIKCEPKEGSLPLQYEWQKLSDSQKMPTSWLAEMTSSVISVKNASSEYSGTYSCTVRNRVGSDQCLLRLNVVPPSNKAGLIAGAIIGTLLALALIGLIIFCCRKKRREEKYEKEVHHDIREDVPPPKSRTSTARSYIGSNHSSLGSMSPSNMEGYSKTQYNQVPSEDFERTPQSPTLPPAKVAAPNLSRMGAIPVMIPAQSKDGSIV
Experimental: CHO-K1 cells stably expressing CAR (CHO-CAR) were incubated with supernatants from PMA activated PLB cells (˜5˜10^7 cell activated in 1 ml, left panel) or recombinant soluble JAML-His (sJAML, 20 μg/ml, right panel) for 1 h at 4° C. JAML binding to CAR on the cell surface was measured by flow cytometry and compared to CHO-CAR cells alone (NoTx). The flow micrograph is representative of 4 independent experiments.
(§1) As it has been established that epithelial CAR is the ligand for JAML on PMN. Whether shed JAML, as well as the recombinant protein could bind to CAR was investigated. To do this, CHO cells stably expressing CAR protein (CHO-CAR) were incubated with either supernatants from PMA activated differentiated PLB-985 (that release high levels of soluble JAML upon activation, (FIG. 2)), or recombinant soluble JAML and stained with DW216 to detect bound JAML. […] The same observation was verified by IF (FIG. 7B). […] The calcium depletion disrupts intercellular junctions of the epithelium and allows for better penetration of soluble JAML.

T84 monolayers = assay: Epithelial barrier recovery after calcium switch (TER, dextran flux); assay type: cell-based, human; details: for epithelial barrier recovery (TER) after calcium depletion: 30 μg/ml, 20 m/ml, up to 24 hours, FIG. 9A
Experimental: T84 monolayers grown on permeable supports were subjected to transient calcium depletion by preincubation in Ca2+ free buffer (PBS) for 40 min to disassemble tight junctions, followed by switching back to calcium containing medium without (No Tx), or with sJAML or a control recombinant IgSF protein sSIRPa (30 μg/ml). Barrier recovery was measured as transepithelial resistance (TER) at time points as indicated.
FIG. 9B. Flux of fluorescently labeled dextran (3 k) was measured at the 24 h time point for conditions as described in panel A. N=4.
Since CAR plays a role in epithelial barrier, the effect of soluble JAML on epithelial barrier recovery was tested. Transepithelial resistance (TER) recovery experiments and dextran flux assay were performed with T84 cells grown in transwells (FIG. 9) as well as with Caco2 cells. […] As a negative control, a related soluble IgSF molecule SIRPalpha had no effect.

[1] = tested on: PMN transepithelial migration; assay: PMN transepithelial migration; assay type: cell-based, human
JAML binding with CAR = target: T2, JAML binding with CAR (Homo sapiens, UniProt Q86YT9); assay: CAR binding assay (ELISA, CAR-GST on immobilized sJAML-His); details: CAR-GST 10 μg/ml on immobilized sJAML-His preincubated with antibody; FIG. 1C
T2 construct: soluble JAMLD1D2 was truncated and tagged after residue Leucine259; made in house; host or cells: HEK293T (sJAML-His)
T2 sequence (Q86YT9 20-259): B1 chain
Experimental: FIG. 1C. CAR binding assay: sJAML-His was coated in Immulon II microtiter microtiter wells overnight, at 4° C. Microtiter wells were washed and blocked and 100 μl antibody solutions were added to wells for 1 hour RT. After washing, CAR-GST was added at 10 μg/ml for 1 hour RT, washed and the assay was developed with HRP conjugated goat anti GST followed by ABTS and OD measurement at 405 nm.
Because certain antibodies recognize the membrane distal domain of JAML, their ability to inhibit binding to CAR was tested. By ELISA, the levels of soluble CAR-GST bound to immobilized sJAML-His preincubated with anti JAML antibodies was measured. […] Thus, these antibodies recognize three different epitopes on JAML and that both DW100 and DW55 bind epitopes close to the JAML binding site. Using a cell aggregation assay, the possibility that DW100 could inhibit the binding of JAML to CAR expressed on the surface of cells was examined. […] This again confirms previously described JAML binding to CAR, as well as the specificity of DW100 (blocking) and DW216 (non-blocking) Abs to JAML.

[2] = target: T3, CAR binding to JAML on CHO cells (Homo sapiens, UniProt Q86YT9); assay: CAR-GST binding to CHO-JAML by flow cytometry; assay type: cell-based; details: CAR-GST 20 μg/ml, mAbs 30 μg/ml, FIG. 7C
T3 construct: expressed in transfected cells
T3 sequence (Q86YT9 20-394): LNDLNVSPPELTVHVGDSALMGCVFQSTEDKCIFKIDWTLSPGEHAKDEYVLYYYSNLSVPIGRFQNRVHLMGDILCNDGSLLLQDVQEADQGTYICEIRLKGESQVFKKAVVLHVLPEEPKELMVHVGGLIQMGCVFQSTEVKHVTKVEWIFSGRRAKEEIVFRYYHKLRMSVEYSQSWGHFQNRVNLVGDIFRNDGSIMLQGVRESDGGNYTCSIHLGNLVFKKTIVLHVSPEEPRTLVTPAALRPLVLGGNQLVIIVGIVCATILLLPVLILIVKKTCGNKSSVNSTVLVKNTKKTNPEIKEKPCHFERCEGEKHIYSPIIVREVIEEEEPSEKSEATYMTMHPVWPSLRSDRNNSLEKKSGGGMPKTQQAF
Experimental: FIG. 7C. CHO-K1 cells stably expressing JAML (CHO-JAML) were incubated with CAR-GST alone (20 μg/ml, left panel) or in the presence of DW216 and DW100 mAbs (30 μg/ml, right panel) as described for sJAML and the binding was measured by flow cytometry.
as §1

Molecule	JAML binding to CHO-CAR (CAR on CHO-CAR cells)	epithelial barrier recovery (TER) after calcium depletion (T84 monolayers; listed as Soluble JAML)	epithelial barrier recovery (TER) after calcium depletion (T84 monolayers; listed as soluble JAML)	flux of fluorescently labeled dextran (3 k) (T84 monolayers; 24 h time point, FIG. 9B)	inhibitory effect on PMN transepithelial migration [1]	inhibition of CAR binding to JAML (JAML binding with CAR)	prevention of CAR-GST binding to CHO-JAML [2]
B1	JAML binding to CHO-CAR was detected in both cases	decreased epithelial barrier recovery; also recorded: delayed both epithelial barrier recovery and wound restitution	significantly impaired the recovery of epithelial barrier	increased dextran flux	–	–	–
B2	–	–	–	–	~15%	inhibit human JAML binding with CAR; also recorded: completely inhibited JAML/CAR interactions; also recorded: completely inhibited binding of JAML to CAR	blocked by DW100

— patent US10465005B2, “JAML specific binding agents, antibodies, and uses related thereto” (Emory University, priority 2011, dated 2019)
